According to US20110263454A1, “Methods of Identifying Functional Characteristics of Promoters, Transcription Modifying Proteins and Transcription Modulating Agents” (Salk Institute for Biological Studies, priority 2008, published 2011):

B1: ERR2: Estrogen Related Receptor β (NR3B2, ERRb), cDNA driver (protein, UniProt O95718 1-433, looked up)
Steroid hormone receptor ERR2: MSSDDRHLGSSCGSFIKTEPSSPSSGIDALSHHSPSGSSDASGGFGLALGTHANGLDSPPMFAGAGLGGTPCRKSYEDCASGIMEDSAIKCEYMLNAIPKRLCLVCGDIASGYHYGVASCEACKAFFKRTIQGNIEYSCPATNECEITKRRRKSCQACRFMKCLKVGMLKEGVRLDRVRGGRQKYKRRLDSESSPYLSLQISPPAKKPLTKIVSYLLVAEPDKLYAMPPPGMPEGDIKALTTLCDLADRELVVIIGWAKHIPGFSSLSLGDQMSLLQSAWMEILILGIVYRSLPYDDKLVYAEDYIMDEEHSRLAGLLELYRAILQLVRRYKKLKVEKEEFVTLKALALANSDSMYIEDLEAVQKLQDLLHEALQDYELSQRHEEPWRTGKLLLTLPLLRQTAAKAVQHFYSVKLQGKVPMHKLFLEMLEAKV
B2: TR4: Testicular Orphan Nuclear Receptor 4 (NR2C2), cDNA driver (protein, UniProt P49116 1-596, looked up)
Nuclear receptor subfamily 2 …: MTSPSPRIQIISTDSAVASPQRIQIVTDQQTGQKIQIVTAVDASGSPKQQFILTSPDGAGTGKVILASPETSSAKQLIFTTSDNLVPGRIQIVTDSASVERLLGKTDVQRPQVVEYCVVCGDKASGRHYGAVSCEGCKGFFKRSVRKNLTYSCRSNQDCIINKHHRNRCQFCRLKKCLEMGMKMESVQSERKPFDVQREKPSNCAASTEKIYIRKDLRSPLIATPTFVADKDGARQTGLLDPGMLVNIQQPLIREDGTVLLATDSKAETSQGALGTLANVVTSLANLSESLNNGDTSEIQPEDQSASEITRAFDTLAKALNTTDSSSSPSLADGIDTSGGGSIHVISRDQSTPIIEVEGPLLSDTHVTFKLTMPSPMPEYLNVHYICESASRLLFLSMHWARSIPAFQALGQDCNTSLVRACWNELFTLGLAQCAQVMSLSTILAAIVNHLQNSIQEDKLSGDRIKQVMEHIWKLQEFCNSMAKLDIDGYEYAYLKAIVLFSPDHPGLTSTSQIEKFQEKAQMELQDYVQKTYSEDTYRLARILVRLPALRLMSSNITEELFFTGLIGNVSIDSIIPYILKMETAEYNGQITGASL
B3: Erb: Estrogen Receptor β (NR3A2, ERb), cDNA driver (protein, UniProt Q92731 1-530, looked up)
Estrogen receptor beta: MDIKNSPSSLNSPSSYNCSQSILPLEHGSIYIPSSYVDSHHEYPAMTFYSPAVMNYSIPSNVTNLEGGPGRQTTSPNVLWPTPGHLSPLVVHRQLSHLYAEPQKSPWCEARSLEHTLPVNRETLKRKVSGNRCASPVTGPGSKRDAHFCAVCSDYASGYHYGVWSCEGCKAFFKRSIQGHNDYICPATNQCTIDKNRRKSCQACRLRKCYEVGMVKCGSRRERCGYRLVRRQRSADEQLHCAGKAKRSGGHAPRVRELLLDALSPEQLVLTLLEAEPPHVLISRPSAPFTEASMMMSLTKLADKELVHMISWAKKIPGFVELSLFDQVRLLESCWMEVLMMGLMWRSIDHPGKLIFAPDLVLDRDEGKCVEGILEIFDMLLATTSRFRELKLQHKEYLCVKAMILLNSSMYPLVTATQDADSSRKLAHLLNAVTDALVWVIAKSGISSQQQSMRLANLLMLLSHVRHASNKGMEHLLNMKCKNVVPVYDLLLEMLNAHVLRGCKSSITGSECSPAEDSKSKEGSQNPQSQ
B4: CTF1: COUP-TF1 (NR2F1), cDNA driver (protein, UniProt P10589 1-423, looked up)
COUP transcription factor 1: MAMVVSSWRDPQDDVAGGNPGGPNPAAQAARGGGGGAGEQQQQAGSGAPHTPQTPGQPGAPATPGTAGDKGQGPPGSGQSQQHIECVVCGDKSSGKHYGQFTCEGCKSFFKRSVRRNLTYTCRANRNCPIDQHHRNQCQYCRLKKCLKVGMRREAVQRGRMPPTQPNPGQYALTNGDPLNGHCYLSGYISLLLRAEPYPTSRYGSQCMQPNNIMGIENICELAARLLFSAVEWARNIPFFPDLQITDQVSLLRLTWSELFVLNAAQCSMPLHVAPLLAAAGLHASPMSADRVVAFMDHIRIFQEQVEKLKALHVDSAEYSCLKAIVLFTSDACGLSDAAHIESLQEKSQCALEEYVRSQYPNQPSRFGKLLLRLPSLRTVSSSVIEQLFFVRLVGKTPIETLIRDMLLSGSSFNWPYMSIQCS
B5: ERR3: Estrogen Related Receptor γ (NR3B3, ERRg), cDNA driver (protein, UniProt P62508 1-458, looked up)
Estrogen-related receptor …: MDSVELCLPESFSLHYEEELLCRMSNKDRHIDSSCSSFIKTEPSSPASLTDSVNHHSPGGSSDASGSYSSTMNGHQNGLDSPPLYPSAPILGGSGPVRKLYDDCSSTIVEDPQTKCEYMLNSMPKRLCLVCGDIASGYHYGVASCEACKAFFKRTIQGNIEYSCPATNECEITKRRRKSCQACRFMKCLKVGMLKEGVRLDRVRGGRQKYKRRIDAENSPYLNPQLVQPAKKPYNKIVSHLLVAEPEKIYAMPDPTVPDSDIKALTTLCDLADRELVVIIGWAKHIPGFSTLSLADQMSLLQSAWMEILILGVVYRSLSFEDELVYADDYIMDEDQSKLAGLLDLNNAILQLVKKYKSMKLEKEEFVTLKAIALANSDSMHIEDVEAVQKLQDVLHEALQDYEAGQHMEDPRRAGKMLMTLPLLRQTSTKAVQHFYNIKLEGKVPMHKLFLEMLEAKV

Tests used:
[1] = tested on: Bmal1 promoter; assay: NHR-promoter luciferase screen, Bmal1 promoter; assay type: cell-based, mouse; settings: for Luc. act., normalized to lacZ / Normalized Luc. act., normalized to control: Bmal1 promoter, HR component without or with ligand; for mBmal1 promoter reporter activity: transcription factor +/- ligand, control = 1.00
Outline: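 CV-1 cells co-transfected with 50 ng NHR (V5H6-tagged, pcDNA3.1; homodimer or RXR heterodimer), 100 ng Bmal1 promoter-luciferase and 50 ng LacZ. Luciferase was normalized to LacZ and to a no-NHR/ligand control.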

[2] = tested on: mNPY promoter; assay: NHR-promoter luciferase screen, mNPY promoter; assay type: cell-based, mouse; settings: for Results of assays of transcription factor (+/- ligand) with mNPY: Table 6d, luciferase activity relative to control (control = 1.00); for Luc. act., normalized to lacZ / Normalized Luc. act., normalized to control: mNPY promoter, HR component with or without ligand; for Normalized Luc. act., normalized to control: relative to control
Outline: (§1)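 CV-1 cells were co-transfected with 50 ng NHR (homodimer or NHR/RXR heterodimer), 100 ng promoter-luciferase construct and 50 ng LacZ. Luciferase was normalized to LacZ and to a no-NHR/no-ligand control.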

[3] = tested on: mAdiponectin promoter; assay: NHR-promoter luciferase screen, mAdiponectin promoter; assay type: cell-based, mouse; settings: for Luc. act., normalized to lacZ / Normalized Luc. act., normalized to control: Adiponectin, HR component without or with its ligand; for mAdiponectin promoter reporter activity: transcription factor +/- ligand, control = 1.00
Outline: as §1

[4] = tested on: hCAR promoter; assay: NHR-promoter luciferase screen, hCAR promoter; assay type: cell-based, human; settings: for luciferase activity normalized to lacZ activity and to a control, hCAR: hCAR promoter-luciferase, CV-1 cells, NHR +/- ligand, control = 1.00; for Luc. act., normalized to lacZ / Normalized Luc. act., normalized to control: hCAR promoter, HR/ligand component
Outline: as §1

[5] = tested on: mUCP2 promoter; assay: NHR-promoter luciferase screen, mUCP2 promoter; assay type: cell-based, mouse; settings: for Luc. act., normalized to lacZ / Normalized Luc. act., normalized to control: mUCP2 promoter reporter, co-transfected HR, with or without its ligand; for Normalized Luc. act., normalized to control: relative to control; for luciferase activity normalized to lacZ activity and to a control, mUCP2: mUCP2 promoter-luciferase, CV-1 cells, NHR +/- ligand, control = 1.00
Outline: as §1

[6] = tested on: mCAR promoter; assay: NHR-promoter luciferase screen, mCAR promoter; assay type: cell-based, mouse; settings: for luciferase activity normalized to lacZ activity and to a control, mCAR: mCAR promoter-luciferase, CV-1 cells, NHR +/- ligand, control = 1.00; for Luc. act., normalized to lacZ / Normalized Luc. act., normalized to control: mCAR promoter, HR/ligand component
Outline: as §1

Row | Molecule | Luc. act., normalized to lacZ [1] | Normalized Luc. act., normalized to control [1] | mBmal1 promoter reporter activity [1] | Results of assays of transcription factor (+/- ligand) with mNPY [2] | Luc. act., normalized to lacZ [2] | Normalized Luc. act., normalized to control [2] | Luc. act., normalized to lacZ [3] | Normalized Luc. act., normalized to control [3] | mAdiponectin promoter reporter activity [3] | luciferase activity normalized to lacZ activity and to a control, hCAR [4] | Luc. act., normalized to lacZ [4] | Normalized Luc. act., normalized to control [4] | Luc. act., normalized to lacZ [5] | Normalized Luc. act., normalized to control [5] | luciferase activity normalized to lacZ activity and to a control, mUCP2 [5] | luciferase activity normalized to lacZ activity and to a control, mCAR [6] | Luc. act., normalized to lacZ [6] | Normalized Luc. act., normalized to control [6]
1 | B1 | 10.6 | 0.7 | 0.68 | 1.02 | 85.4 | 1.0 | 55.3 | 0.9 | 0.88 | 0.77 | 24.2 | 0.8 | 185.1 | 1.7 | 1.68 | 0.99 | 37.8 | 1.0
2 | B2 | 22.5 | 1.4 | 1.44 | 2.86 | 239.8 | 2.9 | 296.1 | 4.7 | 4.71 | 3.15 | 99.4 | 3.1 | 199.0 | 1.8 | 1.81 | 2.52 | 96.2 | 2.5
3 | B3 | 17.0 | 1.1 | 1.09 | 0.79 | 66.5 | 0.8 | 68.6 | 1.1 | 1.09 | 0.81 | 25.7 | 0.8 | 114.4 | 1.0 | 1.04 | 1.18 | 44.8 | 1.2
4 | B4 | 26.1 | 1.7 | 1.67 | 0.47 | 39.2 | 0.5 | 118.7 | 1.9 | 1.89 | 0.14 | 4.5 | 0.1 | 67.1 | 0.6 | 0.61 | 0.31 | 11.8 | 0.3
5 | B5 | 9.5 | 0.6 | 0.61 | 1.11 | 93.1 | 1.1 | 69.7 | 1.1 | 1.11 | 1.34 | 42.2 | 1.3 | 193.4 | 1.8 | 1.76 | 2.87 | 109.5 | 2.9
